The assay addresses T1, human sFlt-1 protein (Ig-like domains 1-3), amino acids Ser27 to Ile328, with carboxy-terminal poly-histidine … (human, UniProt P17948 27-328).
T1 construct: range 27-328; also called sFlt-1 (domains 1-3); Recombinant sFlt1 (d1-d3)
In words: SPR (FIG. 2 legend: ForteBio Octet), antibody immobilized, sFlt-1 (domains 1-3) in the liquid phase; apparent Kd. On the procedure:
The apparent Kd of binding between purified monoclonal antibodies and sFlt1 was measured by surface plasmon resonance (SPR). (FIG. 2B). Antibodies were immobilized on the solid phase and sFlt-1 (domains 1-3) was in the liquid phase. There was no direct correlation between antibody affinity (as measured in a kinetic binding experiment) (FIG. 2B) and effectiveness (FIG. 2A) in the device. There was also no direct correlation with on-rates or off-rates and device effectiveness.

T1 sequence (P17948 27-328): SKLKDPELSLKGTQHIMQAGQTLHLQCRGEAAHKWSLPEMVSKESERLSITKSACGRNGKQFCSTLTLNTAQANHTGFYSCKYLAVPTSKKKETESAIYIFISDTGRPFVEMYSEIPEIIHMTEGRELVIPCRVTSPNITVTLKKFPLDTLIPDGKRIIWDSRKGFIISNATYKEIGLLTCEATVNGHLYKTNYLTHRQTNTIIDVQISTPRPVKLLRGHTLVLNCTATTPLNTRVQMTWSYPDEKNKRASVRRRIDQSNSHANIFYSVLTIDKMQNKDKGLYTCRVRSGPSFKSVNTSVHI

B1: antibody 101 (antibody, V domains shown)
VH: QVQLKQSGPGLVQPSQSLSLTCTVSGFSLTNYGVHWIRQSPGKGLEWLGVIWSGGSIDYNAVFTSRLTITKDHSKSQVFFKVNSLESNDTAIYYCARNVGYRYDDGYVMDYWGQGTSVIVSS
VL: SIVMTQTPKFLLVSAGDRVTITCKASQSVSIDVAWYQQKPGQSPKLLIYHASNRYTGVPDRFIGSRYGTDFTFTISTVQAEDLAVYFCQQNYDSPFTFGSGTKLELKR
notes: Mouse monoclonal antibody raised against human sFlt-1 (Ig-like domains 1-3)
B1: the Kd was determined as 1.44 nM.

Values taken from US20140065150A1 (AGGAMIN PHARMACEUTICALS, published 2014).
